The source of these data is publication PMC11045745, “NMR characterization of RNA binding property of the DEAD-box RNA helicase DDX3X and its implications for helicase activity”.

This data set has as its target DDX3X core WT (Homo sapiens, UniProt O00571 132-607). Briefly: NMR (13C-1H HMQC); AMPPNP; apparent affinity lower than E348Q with ATP; EMSA: 20 mM HEPES-NaOH pH 7.4, 100 mM NaCl, 5 mM DTT, 10% glycerol, 5 mM ATP/MgCl2 or ADP/EDTA, 100 nM RNA; NMR: 35 C (30 C for UA-12mer), 40-50 uM protein (HMQC) or 100 uM RNA (19F), 5 mM ATP/MgCl2; NMR buffer not given in the material. As to conditions: protein: recombinant; tags: His6-SUMO removed (Ulp1); two-Gly linker. Background: A gel shift assay detects complexes by their altered migration in electrophoresis.

Sequence of DDX3X core WT (O00571 132-607): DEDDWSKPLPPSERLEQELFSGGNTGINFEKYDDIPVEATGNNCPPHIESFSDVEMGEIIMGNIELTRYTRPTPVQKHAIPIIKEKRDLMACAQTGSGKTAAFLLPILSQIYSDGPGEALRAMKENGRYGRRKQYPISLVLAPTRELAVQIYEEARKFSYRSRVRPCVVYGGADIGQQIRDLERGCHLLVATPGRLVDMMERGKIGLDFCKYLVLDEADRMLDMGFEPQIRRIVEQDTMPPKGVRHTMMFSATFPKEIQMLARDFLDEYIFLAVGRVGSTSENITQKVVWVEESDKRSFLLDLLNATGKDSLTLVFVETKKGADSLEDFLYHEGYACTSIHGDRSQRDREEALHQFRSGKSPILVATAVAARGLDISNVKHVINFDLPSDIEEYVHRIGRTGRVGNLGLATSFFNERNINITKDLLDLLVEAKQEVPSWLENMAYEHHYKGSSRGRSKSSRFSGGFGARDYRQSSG

B1: poly-U10 (ssRNA)
RNA: UUUUUUUUUU
B1: the binding result is reported as “binds”.
